Holding throughout (experiment): cleavage_in_vitro
Data set [1] has as its system OMNI-XL-18 (unidentified metagenomic bacterium). Particulars: TXTL; PAM NGYCCNNN
For data set [2], the system named is OMNI-XL-19 (unidentified metagenomic bacterium). As to conditions: TXTL; PAM NRGNRCNN
Data set [3] deals with OMNI-XL-12 (unidentified metagenomic bacterium). Particulars: TXTL; PAM relaxed NRNNCCNN, strict NRTNCCRN
Data set [4] deals with OMNI-XL-16 (unidentified metagenomic bacterium). Particulars: TXTL; PAM NARNACVN
OMNI-XL-16 (unidentified metagenomic bacterium), sequence (chain, as listed by the source): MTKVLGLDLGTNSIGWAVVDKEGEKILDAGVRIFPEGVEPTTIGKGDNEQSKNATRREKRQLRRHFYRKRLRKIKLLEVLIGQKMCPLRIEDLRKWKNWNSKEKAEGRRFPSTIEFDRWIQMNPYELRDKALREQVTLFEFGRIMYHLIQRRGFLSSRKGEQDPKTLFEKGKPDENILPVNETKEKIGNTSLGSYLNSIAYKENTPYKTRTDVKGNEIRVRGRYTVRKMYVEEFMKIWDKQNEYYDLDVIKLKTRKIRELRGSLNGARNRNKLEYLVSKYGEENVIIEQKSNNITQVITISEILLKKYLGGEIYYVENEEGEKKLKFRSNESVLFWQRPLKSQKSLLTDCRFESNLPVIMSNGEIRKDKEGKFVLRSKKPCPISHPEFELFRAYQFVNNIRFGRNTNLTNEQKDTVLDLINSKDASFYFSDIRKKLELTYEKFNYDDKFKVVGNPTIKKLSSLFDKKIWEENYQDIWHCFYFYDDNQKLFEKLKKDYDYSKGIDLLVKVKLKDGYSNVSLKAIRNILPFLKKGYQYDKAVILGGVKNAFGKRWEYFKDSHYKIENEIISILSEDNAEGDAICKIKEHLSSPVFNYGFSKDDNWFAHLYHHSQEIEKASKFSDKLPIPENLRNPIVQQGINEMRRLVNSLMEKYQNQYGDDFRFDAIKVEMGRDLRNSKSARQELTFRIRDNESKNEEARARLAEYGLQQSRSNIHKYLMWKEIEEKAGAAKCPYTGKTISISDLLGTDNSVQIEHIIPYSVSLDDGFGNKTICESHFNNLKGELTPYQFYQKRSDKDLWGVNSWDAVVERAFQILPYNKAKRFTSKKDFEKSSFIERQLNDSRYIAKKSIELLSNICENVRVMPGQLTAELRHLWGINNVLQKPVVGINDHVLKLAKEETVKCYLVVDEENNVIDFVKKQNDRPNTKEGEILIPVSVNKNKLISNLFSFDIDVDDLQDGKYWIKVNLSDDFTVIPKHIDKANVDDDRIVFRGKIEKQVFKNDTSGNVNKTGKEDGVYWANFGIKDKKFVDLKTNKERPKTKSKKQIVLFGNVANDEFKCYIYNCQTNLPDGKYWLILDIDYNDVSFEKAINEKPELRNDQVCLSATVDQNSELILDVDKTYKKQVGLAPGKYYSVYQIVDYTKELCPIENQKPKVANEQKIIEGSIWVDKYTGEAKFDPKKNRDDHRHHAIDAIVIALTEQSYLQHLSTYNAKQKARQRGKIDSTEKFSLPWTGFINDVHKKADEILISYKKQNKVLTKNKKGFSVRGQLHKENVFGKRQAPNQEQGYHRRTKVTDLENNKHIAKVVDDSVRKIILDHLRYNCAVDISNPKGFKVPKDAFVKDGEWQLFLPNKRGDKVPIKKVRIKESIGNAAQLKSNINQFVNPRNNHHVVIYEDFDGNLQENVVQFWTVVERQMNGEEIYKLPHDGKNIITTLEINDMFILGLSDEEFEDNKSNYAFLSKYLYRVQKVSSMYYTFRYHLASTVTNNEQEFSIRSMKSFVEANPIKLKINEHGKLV

OMNI-XL-12 (unidentified metagenomic bacterium), sequence (chain, as listed by the source): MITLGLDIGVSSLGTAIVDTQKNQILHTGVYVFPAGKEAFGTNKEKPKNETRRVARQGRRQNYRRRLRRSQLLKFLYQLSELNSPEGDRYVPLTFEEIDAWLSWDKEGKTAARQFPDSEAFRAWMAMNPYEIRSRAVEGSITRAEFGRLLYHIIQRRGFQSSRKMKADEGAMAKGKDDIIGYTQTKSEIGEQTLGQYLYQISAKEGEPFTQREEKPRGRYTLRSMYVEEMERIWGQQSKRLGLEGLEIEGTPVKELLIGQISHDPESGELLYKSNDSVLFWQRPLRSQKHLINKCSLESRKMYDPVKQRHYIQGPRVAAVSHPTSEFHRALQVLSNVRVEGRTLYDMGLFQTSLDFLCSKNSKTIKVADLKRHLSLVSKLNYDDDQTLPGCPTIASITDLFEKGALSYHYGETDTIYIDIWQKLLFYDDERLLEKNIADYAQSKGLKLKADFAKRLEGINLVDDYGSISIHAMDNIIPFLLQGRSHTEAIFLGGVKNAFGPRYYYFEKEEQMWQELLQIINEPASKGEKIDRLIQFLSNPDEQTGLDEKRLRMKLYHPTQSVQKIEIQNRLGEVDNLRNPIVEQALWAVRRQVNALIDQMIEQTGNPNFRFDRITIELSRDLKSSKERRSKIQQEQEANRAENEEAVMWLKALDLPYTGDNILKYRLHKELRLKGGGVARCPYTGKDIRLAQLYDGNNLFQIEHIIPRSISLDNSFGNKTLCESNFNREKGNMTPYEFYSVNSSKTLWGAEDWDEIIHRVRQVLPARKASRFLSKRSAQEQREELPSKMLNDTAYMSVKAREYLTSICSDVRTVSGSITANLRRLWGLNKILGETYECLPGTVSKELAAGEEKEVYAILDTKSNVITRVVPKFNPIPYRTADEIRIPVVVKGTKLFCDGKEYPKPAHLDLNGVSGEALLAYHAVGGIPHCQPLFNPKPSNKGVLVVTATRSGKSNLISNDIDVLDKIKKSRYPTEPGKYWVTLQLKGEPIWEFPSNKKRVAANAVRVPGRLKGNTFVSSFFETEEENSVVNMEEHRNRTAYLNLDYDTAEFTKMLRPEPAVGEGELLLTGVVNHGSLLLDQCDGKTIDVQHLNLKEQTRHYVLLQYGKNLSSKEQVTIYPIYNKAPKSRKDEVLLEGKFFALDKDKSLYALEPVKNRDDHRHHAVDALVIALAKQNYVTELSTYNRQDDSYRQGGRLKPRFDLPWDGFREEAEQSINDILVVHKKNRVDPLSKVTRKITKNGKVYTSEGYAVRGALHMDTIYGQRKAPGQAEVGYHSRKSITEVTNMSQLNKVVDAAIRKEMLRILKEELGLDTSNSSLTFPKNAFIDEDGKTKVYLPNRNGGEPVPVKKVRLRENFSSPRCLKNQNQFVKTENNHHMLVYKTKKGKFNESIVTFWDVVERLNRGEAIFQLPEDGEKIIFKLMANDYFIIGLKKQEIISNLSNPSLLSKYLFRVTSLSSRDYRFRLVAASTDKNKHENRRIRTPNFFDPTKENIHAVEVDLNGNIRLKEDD
OMNI-XL-18 (unidentified metagenomic bacterium), sequence (chain, as listed by the source): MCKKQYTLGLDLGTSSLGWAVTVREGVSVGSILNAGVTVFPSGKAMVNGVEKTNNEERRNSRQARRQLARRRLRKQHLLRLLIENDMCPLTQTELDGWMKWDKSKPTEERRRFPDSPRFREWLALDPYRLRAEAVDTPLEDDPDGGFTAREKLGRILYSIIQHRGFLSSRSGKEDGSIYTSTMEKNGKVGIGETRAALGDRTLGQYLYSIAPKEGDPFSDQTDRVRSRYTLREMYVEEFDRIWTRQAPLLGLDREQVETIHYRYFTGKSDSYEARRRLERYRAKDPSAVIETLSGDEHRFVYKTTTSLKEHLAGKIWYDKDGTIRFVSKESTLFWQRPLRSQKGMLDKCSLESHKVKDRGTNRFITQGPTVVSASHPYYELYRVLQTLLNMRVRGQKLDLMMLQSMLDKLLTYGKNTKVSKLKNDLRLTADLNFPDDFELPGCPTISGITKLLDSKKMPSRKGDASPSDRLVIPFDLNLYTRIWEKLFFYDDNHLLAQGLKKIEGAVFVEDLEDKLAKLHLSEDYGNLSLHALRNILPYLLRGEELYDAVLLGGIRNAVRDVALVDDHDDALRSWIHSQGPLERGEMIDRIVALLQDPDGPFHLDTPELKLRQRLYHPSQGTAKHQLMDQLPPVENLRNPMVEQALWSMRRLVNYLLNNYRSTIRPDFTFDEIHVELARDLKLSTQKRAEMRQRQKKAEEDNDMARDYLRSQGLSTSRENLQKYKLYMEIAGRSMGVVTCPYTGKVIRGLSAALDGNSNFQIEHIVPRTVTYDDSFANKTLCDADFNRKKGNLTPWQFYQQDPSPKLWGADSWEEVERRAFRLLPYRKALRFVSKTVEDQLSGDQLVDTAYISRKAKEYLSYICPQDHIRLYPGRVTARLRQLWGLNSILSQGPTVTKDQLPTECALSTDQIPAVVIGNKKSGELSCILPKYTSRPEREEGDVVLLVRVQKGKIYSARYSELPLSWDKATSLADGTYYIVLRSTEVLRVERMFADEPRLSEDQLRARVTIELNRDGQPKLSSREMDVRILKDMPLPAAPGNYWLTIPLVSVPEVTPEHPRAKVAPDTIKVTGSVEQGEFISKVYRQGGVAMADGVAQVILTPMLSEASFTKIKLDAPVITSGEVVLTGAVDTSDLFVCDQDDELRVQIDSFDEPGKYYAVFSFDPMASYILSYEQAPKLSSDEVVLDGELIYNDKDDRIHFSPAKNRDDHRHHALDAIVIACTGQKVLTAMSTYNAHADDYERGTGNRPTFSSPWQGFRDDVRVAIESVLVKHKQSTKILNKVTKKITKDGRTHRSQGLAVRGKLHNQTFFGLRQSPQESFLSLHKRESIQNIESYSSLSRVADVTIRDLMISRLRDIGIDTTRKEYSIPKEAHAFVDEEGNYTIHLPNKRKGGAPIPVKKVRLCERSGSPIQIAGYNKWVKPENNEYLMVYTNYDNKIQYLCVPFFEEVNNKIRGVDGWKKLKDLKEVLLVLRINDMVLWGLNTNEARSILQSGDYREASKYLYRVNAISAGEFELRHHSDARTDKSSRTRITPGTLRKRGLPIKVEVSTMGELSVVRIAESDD

Turning to “GGAAGAGCAGAGCCUUGGUCUCGUUGUGGAUUGAUCAGUUUGAAAAAACGAUCUCUUCACAACAAGGCUAUAUGCCGUAGUUGAUUCUACGCUCCCGCUUCGGCGGGAGCUUUUUUU / GGAAGAGCAGAGCCTTGGTCTCNNNNNNNN / NNNNNNNNGAGACCAAGGCTCTGCTCTTCC [OMNI-XL-18 sgRNA V2 T2 ; T2 protospacer 8N PAM library]”, in data set [1], the activity (1-depletion score) is 0.98.
As to “GGAAGAGCAGAGCCUUGGUCUCGUUGUGGAUUGAUCAGUUUGAAAAAACGAUCUUUUCACAACAAGGCUAUAUGCCGUAGUUGAUUCUACGCUCCCGCUUCGGCGGGAGCUUUUUUU / GGAAGAGCAGAGCCTTGGTCTCNNNNNNNN / NNNNNNNNGAGACCAAGGCTCTGCTCTTCC [OMNI-XL-18 sgRNA V1 T2 ; T2 protospacer 8N PAM library]”, the activity (1-depletion score) in data set [1] turned out to be 0.97.
The sequence “GGAAGAGCAGAGCCUUGGUCUCGUUGUGGAUUGAUCAGUUUGAAAAAACGAUCUUUUCACAACAAGGCUAUAUGCCGUAGUUGAUUCUACGCUCCCGCUUCGGCGGGAGCUUUUUUUU / GGAAGAGCAGAGCCTTGGTCTCNNNNNNNN / NNNNNNNNGAGACCAAGGCTCTGCTCTTCC [OMNI-XL-19 sgRNA V1 T2 ; T2 protospacer 8N PAM library]” came in with an activity (1-depletion score) in data set [2] of 0.94.
In data set [3], “GGAAGAGCAGAGCCUUGGUCUCGUUGUGGAUUGAUUACUUUGAAAAAAGUAAUCUCUUCAUAACAAGGCUAUAUGCCGAAGUUAUUACGGCUCCACUUCGGUGGAGCCUUUUUU / GGAAGAGCAGAGCCTTGGTCTCNNNNNNNN / NNNNNNNNGAGACCAAGGCTCTGCTCTTCC [OMNI-XL-12 sgRNA V2 T2 ; T2 protospacer 8N PAM library]” showed an activity (1-depletion score) of 0.97.
On the same count and under the same terms, for “GGAAGAGCAGAGCCUUGGUCUCGUUGUGGAUUGAUUACUUUGAAAAAAGUAAUCUUUUCAUAACAAGGCUAUAUGCCGAAGUUAUUACGGCUCCACUUCGGUGGAGCCUUUUUU / GGAAGAGCAGAGCCTTGGTCTCNNNNNNNN / NNNNNNNNGAGACCAAGGCTCTGCTCTTCC [OMNI-XL-12 sgRNA V1 T2 ; T2 protospacer 8N PAM library]” the value was 0.98.
With “GGAAGAGCAGAGCCUUGGUCUCGUUGUGGUUUGAUGUAAUUGAAAAAAUUACAUCUUAUCACAAUAAGGCUAUAUGCCGAAGGAUAAAAUGUCCUAUACUCCUGCUUCGGUAGGAGUUUUUUU / GGAAGAGCAGAGCCTTGGTCTCNNNNNNNN / NNNNNNNNGAGACCAAGGCTCTGCTCTTCC [OMNI-XL-16 sgRNA V1 T2 ; T2 protospacer 8N PAM library]”, the activity (1-depletion score) in data set [4] was 0.64.
